From US20250115663A1 (CELLDEX THERAPEUTICS, published 2025)
Residue numbers refer to the chain shown, from its start.

B1: anti-CD40 human monoclonal antibody 3G5 (antibody, human IgG2, V domains shown)
VH: QVQLVESGGGVVQPGKSLRLSCAASGFTFSSNGIHWVRQAPGKGLEWVAVIWSDGSNKFYADSVKGRFTISRDNSKNTLYLQMNSLRAEDTAVYYCARASGSGSYYNFFDYWGQGTLVTVSS
VL: EIVMTQSPATLSVSPGERATLSCRASQSVRSNLAWYQQKPGQAPRLLIYGASTRATGIPARFSGSGSGTEFTLTINSLQSEDFAVYYCQQHNKWITFGQGTRLEIK
notes: Human IgG2
B2: anti-CD40 human monoclonal antibody 3C3 (antibody, human IgG2, kappa, V domains shown)
VH: QVQLVESGGGVVQPGRSLRLSCAGSGFIFSRYGMYWVRQAPGKGLEWVAVIWYDGSYKYYADSVKGRFTISRDNSKNTLYLQMNSLRAEDTAVYYCARESPWYYFDYWGQGTLVTVSS
VL: DIQMTQSPSSLSASVGDRVTITCRASQGISNYLAWYQQKPGKVPKLLIYAASTLQSGVPSRFSGSGSGTDFTLTISSLQPEDVATYYCQKYKSAPFTFGPGTKVDIKR
notes: Human IgG2, C-terminal lysine removed; also called anti-CD40 mAb 3C3; CD40 antibody 3C3

Legend:
[1] = molecular target: T1, kappa-sCD40(1-94)-Flag mutant fragment D (multiple mutations of residues 33-36) (human, UniProt P25942 21-114); assay: ELISA, mutated kappa-sCD40(1-94)-Flag captured on anti-Flag
T1 construct: The text says only multiple mutations of residues 33-36 (human to mouse differences); that mutant D carries exactly these is inferred; also called D (33-36); not shown: N-terminal human kappa light chain; C-terminal Flag tag
T1 chain: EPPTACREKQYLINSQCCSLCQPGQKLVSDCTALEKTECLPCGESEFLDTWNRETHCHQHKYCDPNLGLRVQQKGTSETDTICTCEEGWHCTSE

[2] = molecular target: T2, kappa-sCD40(1-94)-Flag point mutant E33A (human, UniProt P25942 21-114); assay: as above
T2 construct: not shown: N-terminal human kappa light chain; C-terminal Flag tag
T2 chain: T1 chain with L34F, E35T, K36E

[3] = molecular target: T3, soluble human CD40-MsIgG2a (human, UniProt P25942); assay: BLI (Octet QKe), antibody captured on anti-human Fc (AHC) biosensors, analyte soluble human CD40-MsIgG2a 3.13 to 0.098 nM, 25 C, 1:1 fit; column head kdis(1/s)
T3 construct: soluble, fused to mouse IgG2a; also called recombinant human CD40-msG2a chimeric protein; CD40-MsIgG2a (Celldex, 60 kD by SDS-PAGE)
Protocol: Purified antibodies from Example 1 were captured on Anti-Human Fc Capture (AHC) biosensors (Fortebio Product No. 18-5060). Each antibody was prepared in dilution buffer (10mMPO4+150 mM NaCl+1 mg/mL BSA+0.5% Tween 20, pH 7.2) to 0.5 μg/mL and loaded on freshly hydrated AHC biosensors for 35-50 sec at 25° C. and 1000 rpm plate shake speed to achieve a target response of 0.2 nm. Low levels of ligand were captured to limit any effects of mass transport of analyte on kinetic parameters. For one assay, eight biosensors were loaded with the same antibody.
Binding was determined by exposing six of the antibody loaded biosensors to analyte: soluble human CD40-MsIgG2a (Celldex, 60 kD by SDS-PAGE). Affinity measurements were determined using 2-fold serial dilutions of analyte ranging from 3.13 to 0.098 nM in dilution buffer at 25° C. and 1000 rpm plate shake speed. Association of the antibody loaded biosensors in analyte wells was carried out for 1200 seconds, the biosensors were then moved to dilution buffer wells for 2.5 hrs (9000 sec) for dissociation measurements.
Fortebio's Data Analysis Software version 8.2.0.7 (Pall ForteBio, Menlo Park, CA) was used in each case to derive kinetic parameters from the concentration series of analyte in dilution buffer binding to captured antibody. The association and dissociation curves were fitted to a 1:1 binding model using the data analysis software according to the manufacturer's guidelines.

[4] = molecular target: T4, kappa-sCD40-Flag fusion protein, fragment amino acids 1-94 (human, UniProt P25942 21-114); assay: ELISA, kappa-sCD40(1-94)-Flag captured on anti-Flag antibody, detection anti-human IgG Fc-HRP; the concentration axis is taken as that of 3C3 (not said on the sheet)
T4 construct: also called sCD40aa 1-94; not shown: N-terminal human kappa light chain; C-terminal Flag tag
Protocol: (§1) 1 μg/ml of purified kappa-sCD40-Flag fusion proteins or CHO cell supernatants containing the sCD40 fusion proteins were captured to microtiter plates that were pre-coated with 5 μg/ml mouse anti-Flag antibody (Sigma) in PBS and blocked with 5% bovine serum albumin in PBS. Following incubation with the CD40 antibody, the microplates were washed with PBS/Tween, and incubated with a goat anti-human IgG Fc polyclonal reagent conjugated to horseradish peroxidase. After washing, the plates were developed with HRP substrate, and analyzed at OD 450-650 using a microtiter plate reader. An ELISA with a goat anti-human IgG Fab2-HRP to measure kappa chain binding was carried out in parallel to validate the sCD40 fusion protein expression from different transfections.

[5] = molecular target: T5, kappa-sCD40(1-94)-Flag mutant fragment C (multiple mutations of residues 25, 26, 28 and 30); assay: ELISA, kappa-sCD40-Flag fusion captured on anti-Flag, anti-human IgG Fc-HRP
T5 construct: also called C (25, 26, 28, 30)

[6] = molecular target: T6, kappa-sCD40(1-94)-Flag point mutant P2Q (human, UniProt P25942 21-114); assay: as above
T6 construct: not shown: N-terminal human kappa light chain; C-terminal Flag tag
T6 chain: T1 chain with P2Q, A33E, L34F, E35T, K36E

[7] = molecular target: T7, kappa-sCD40(1-94)-Flag mutant fragment B (multiple mutations of residues 13-15); assay: as above
T7 construct: also called B (13-15)

[8] = molecular target: T8, kappa-sCD40-Flag fusion protein, fragment amino acids 84-173 (human, UniProt P25942 104-193); assay: ELISA, kappa-sCD40-Flag fragment captured on anti-Flag
T8 construct: not shown: N-terminal human kappa light chain; C-terminal Flag tag
Protocol: as §1

[9] = molecular target: T9, kappa-sCD40-Flag fusion protein, fragment amino acids 36-130 (human, UniProt P25942 56-150); assay: as above
T9 construct: not shown: N-terminal human kappa light chain; C-terminal Flag tag
Protocol: as §1

[10] = molecular target: T10, kappa-sCD40(1-94)-Flag point mutant E1G (human, UniProt P25942 22-114); assay: ELISA, kappa-sCD40-Flag fusion (~2 ug/ml) captured on anti-Flag, anti-human IgG Fc-HRP
T10 construct: not shown: N-terminal human kappa light chain; C-terminal Flag tag
Protocol: as §1, with “containing” for “1 μg/ml of purified kappa-sCD40-Flag fusion proteins or CHO cell supernatants containing”

[11] = molecular target: T11, kappa-sCD40(1-94)-Flag point mutant P3S (human, UniProt P25942 21-114); assay: ELISA, mutated kappa-sCD40(1-94)-Flag captured on anti-Flag antibody, detection anti-human IgG Fc-HRP; the concentration axis is taken as that of 3C3
T11 construct: not shown: N-terminal human kappa light chain; C-terminal Flag tag
T11 chain: T1 chain with P3S, A33E, L34F, E35T, K36E
Protocol: as §1

T8 sequence (P25942 104-193): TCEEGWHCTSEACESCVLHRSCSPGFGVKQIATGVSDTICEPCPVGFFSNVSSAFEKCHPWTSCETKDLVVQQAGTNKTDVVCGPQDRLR
T3 sequence (P25942 21-193 limits assumed): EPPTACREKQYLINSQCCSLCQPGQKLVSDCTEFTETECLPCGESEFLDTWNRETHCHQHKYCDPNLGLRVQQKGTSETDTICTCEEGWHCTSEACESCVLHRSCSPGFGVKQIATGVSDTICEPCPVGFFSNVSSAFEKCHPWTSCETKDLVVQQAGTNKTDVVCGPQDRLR
T9 sequence (P25942 56-150): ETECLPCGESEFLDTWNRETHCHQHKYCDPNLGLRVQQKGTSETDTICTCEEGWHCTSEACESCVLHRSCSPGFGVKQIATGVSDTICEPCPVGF

Binder	binding result [1]	binding result [2]	koff [3]	EC50 (read off the curve) [4]	OD [5]	OD [6]	OD [7]	binding result [8]	binding result [9]	Average OD [10]	EC50 (read off the curve) [11]
B1	no binding	no binding	–	–	–	–	–	–	–	–	–
B2	–	–	8.67e-06 s⁻¹	~0.02 µg/mL	2.02 OD 450-650	2.2 OD 450-650	2.38 OD 450-650	no binding (tested: ~1 ug/ml fragment)	no binding (tested: ~1 ug/ml fragment)	1.97 OD 450-650	~0.03 µg/mL
